The results in this text go back to PMC2707180 (Nature structural & molecular biology, 2008).

First the molecules themselves.
B1: GST-tagged C-terminal fragment of Prp8 (1806-2413 aa) (domain or fragment)
chain: MKANPALYVLRERIRKGLQIYQSSVQEPFLNSSNYAELFNNDIKLFVDDTNVYRVTVHKTFEGNVATKAINGCIFTLNPKTGHLFLKIIHTSVWAGQKRLSQLAKWKTAEEVSALVRSLPKEEQPKQIIVTRKAMLDPLEVHMLDFPNIAIRPTELRLPFSAAMSIDKLSDVVMKATEPQMVLFNIYDDWLDRISSYTAFSRLTLLLRALKTNEESAKMILLSDPTITIKSYHLWPSFTDEQWITIESQMRDLILTEYGRKYNVNISALTQTEIKDIILGQNIKAPSVKRQKMAELEAARSEKQNDEEAAGASTVMKTKTINAQGEEIVVVASADYESQTFSSKNEWRKSAIANTLLYLRLKNIYVSADDFVEEQNVYVLPKNLLKKFIEISDVKIQVAAFIYGMSAKDHPKVKEIKTVVLVPQLGHVGSVQISNIPDIGDLPDTEGLELLGWIHTQTEELKFMAASEVATHSKLFADKKRDCIDISIFSTPGSVSLSAYNLTDEGYQWGEENKDIMNVLSEGFEPTFSTHAQLLLSDRITGNFIIPSGNVWNYTFMGTAFNQEGDYNFKYGIPLEFYNEMHRPVHFLQFSELAGDEELEAEQIDVFS
B2: GST-tagged Prp8-CTF with the RP mutation R2388K (domain or fragment)
chain: MKANPALYVLRERIRKGLQIYQSSVQEPFLNSSNYAELFNNDIKLFVDDTNVYRVTVHKTFEGNVATKAINGCIFTLNPKTGHLFLKIIHTSVWAGQKRLSQLAKWKTAEEVSALVRSLPKEEQPKQIIVTRKAMLDPLEVHMLDFPNIAIRPTELRLPFSAAMSIDKLSDVVMKATEPQMVLFNIYDDWLDRISSYTAFSRLTLLLRALKTNEESAKMILLSDPTITIKSYHLWPSFTDEQWITIESQMRDLILTEYGRKYNVNISALTQTEIKDIILGQNIKAPSVKRQKMAELEAARSEKQNDEEAAGASTVMKTKTINAQGEEIVVVASADYESQTFSSKNEWRKSAIANTLLYLRLKNIYVSADDFVEEQNVYVLPKNLLKKFIEISDVKIQVAAFIYGMSAKDHPKVKEIKTVVLVPQLGHVGSVQISNIPDIGDLPDTEGLELLGWIHTQTEELKFMAASEVATHSKLFADKKRDCIDISIFSTPGSVSLSAYNLTDEGYQWGEENKDIMNVLSEGFEPTFSTHAQLLLSDRITGNFIIPSGNVWNYTFMGTAFNQEGDYNFKYGIPLEFYNEMHKPVHFLQFSELAGDEELEAEQIDVFS
B3: GST-tagged Prp8-CTF with the RP mutation F2382L (domain or fragment)
chain: MKANPALYVLRERIRKGLQIYQSSVQEPFLNSSNYAELFNNDIKLFVDDTNVYRVTVHKTFEGNVATKAINGCIFTLNPKTGHLFLKIIHTSVWAGQKRLSQLAKWKTAEEVSALVRSLPKEEQPKQIIVTRKAMLDPLEVHMLDFPNIAIRPTELRLPFSAAMSIDKLSDVVMKATEPQMVLFNIYDDWLDRISSYTAFSRLTLLLRALKTNEESAKMILLSDPTITIKSYHLWPSFTDEQWITIESQMRDLILTEYGRKYNVNISALTQTEIKDIILGQNIKAPSVKRQKMAELEAARSEKQNDEEAAGASTVMKTKTINAQGEEIVVVASADYESQTFSSKNEWRKSAIANTLLYLRLKNIYVSADDFVEEQNVYVLPKNLLKKFIEISDVKIQVAAFIYGMSAKDHPKVKEIKTVVLVPQLGHVGSVQISNIPDIGDLPDTEGLELLGWIHTQTEELKFMAASEVATHSKLFADKKRDCIDISIFSTPGSVSLSAYNLTDEGYQWGEENKDIMNVLSEGFEPTFSTHAQLLLSDRITGNFIIPSGNVWNYTFMGTAFNQEGDYNFKYGIPLELYNEMHRPVHFLQFSELAGDEELEAEQIDVFS

The experiment deals with full-length Brr2 with C-terminal calmodulin-binding domain (S. cerevisiae, UniProt P32639 1-2163). Nature of the experiment: pull-down.
Chain of full-length Brr2 with C-terminal calmodulin-binding domain (P32639 whole entry, the tested form may be a part): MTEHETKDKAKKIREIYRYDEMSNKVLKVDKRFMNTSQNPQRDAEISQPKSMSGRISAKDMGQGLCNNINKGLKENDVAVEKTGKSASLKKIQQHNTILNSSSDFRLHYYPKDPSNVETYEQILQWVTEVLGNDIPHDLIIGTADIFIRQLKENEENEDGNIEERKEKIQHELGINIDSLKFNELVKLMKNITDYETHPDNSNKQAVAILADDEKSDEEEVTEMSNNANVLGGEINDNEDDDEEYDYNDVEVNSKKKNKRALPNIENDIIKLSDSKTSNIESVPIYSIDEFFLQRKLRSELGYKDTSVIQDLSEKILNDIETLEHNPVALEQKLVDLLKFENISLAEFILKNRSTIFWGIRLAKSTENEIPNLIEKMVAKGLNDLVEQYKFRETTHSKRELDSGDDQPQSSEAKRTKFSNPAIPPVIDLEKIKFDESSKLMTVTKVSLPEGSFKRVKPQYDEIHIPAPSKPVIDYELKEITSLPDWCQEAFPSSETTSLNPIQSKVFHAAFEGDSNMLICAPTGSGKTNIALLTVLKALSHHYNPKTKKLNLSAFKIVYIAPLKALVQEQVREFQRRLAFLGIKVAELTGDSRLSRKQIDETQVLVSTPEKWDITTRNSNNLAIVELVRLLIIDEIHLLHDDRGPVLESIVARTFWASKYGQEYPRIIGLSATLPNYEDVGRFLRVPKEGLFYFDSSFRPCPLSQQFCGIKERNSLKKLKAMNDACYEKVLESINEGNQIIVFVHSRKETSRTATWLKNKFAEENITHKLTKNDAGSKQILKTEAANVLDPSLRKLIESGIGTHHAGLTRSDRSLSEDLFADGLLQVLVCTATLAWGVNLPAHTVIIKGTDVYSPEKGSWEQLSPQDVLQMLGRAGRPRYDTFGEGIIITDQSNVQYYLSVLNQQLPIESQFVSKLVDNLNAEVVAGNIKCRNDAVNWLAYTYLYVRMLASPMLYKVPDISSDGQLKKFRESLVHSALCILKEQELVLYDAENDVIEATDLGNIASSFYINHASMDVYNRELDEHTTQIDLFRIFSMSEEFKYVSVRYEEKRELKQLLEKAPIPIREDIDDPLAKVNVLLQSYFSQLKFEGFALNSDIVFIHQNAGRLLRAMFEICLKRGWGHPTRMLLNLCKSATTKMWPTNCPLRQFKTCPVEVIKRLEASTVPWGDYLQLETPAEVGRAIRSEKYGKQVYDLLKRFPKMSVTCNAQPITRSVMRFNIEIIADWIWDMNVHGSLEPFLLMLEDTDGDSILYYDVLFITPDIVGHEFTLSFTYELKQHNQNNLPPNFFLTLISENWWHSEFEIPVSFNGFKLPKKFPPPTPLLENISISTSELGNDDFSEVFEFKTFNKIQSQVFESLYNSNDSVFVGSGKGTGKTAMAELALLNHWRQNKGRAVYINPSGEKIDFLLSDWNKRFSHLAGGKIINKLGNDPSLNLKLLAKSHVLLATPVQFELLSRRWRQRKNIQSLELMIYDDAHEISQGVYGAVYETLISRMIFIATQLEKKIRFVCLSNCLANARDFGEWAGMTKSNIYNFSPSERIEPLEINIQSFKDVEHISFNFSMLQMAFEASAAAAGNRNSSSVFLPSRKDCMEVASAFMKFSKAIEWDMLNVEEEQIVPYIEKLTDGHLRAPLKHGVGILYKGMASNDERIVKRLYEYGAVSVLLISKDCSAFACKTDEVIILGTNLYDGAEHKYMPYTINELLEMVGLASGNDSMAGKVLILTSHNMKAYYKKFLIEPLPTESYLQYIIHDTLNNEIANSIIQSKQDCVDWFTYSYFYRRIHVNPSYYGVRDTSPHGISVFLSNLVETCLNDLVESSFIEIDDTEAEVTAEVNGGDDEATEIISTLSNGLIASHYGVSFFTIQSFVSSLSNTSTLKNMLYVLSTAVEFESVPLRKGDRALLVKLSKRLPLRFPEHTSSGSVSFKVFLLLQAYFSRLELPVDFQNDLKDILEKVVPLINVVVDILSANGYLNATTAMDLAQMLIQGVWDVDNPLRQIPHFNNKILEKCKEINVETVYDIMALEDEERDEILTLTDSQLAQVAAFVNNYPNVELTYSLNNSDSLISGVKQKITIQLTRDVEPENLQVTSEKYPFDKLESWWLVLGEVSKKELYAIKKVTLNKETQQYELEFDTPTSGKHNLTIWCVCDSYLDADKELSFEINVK
For the molecule B1, the binding result is “binds”.

As for B2, the binding result is given as “binds”.

With B3, the binding result was “binds”.
